Where only a bound is given, the exact number is not on record here.

In data set [1] the target is S. cerevisiae Mlh1–Pms1 [S. cerevisiae]. Nature of the data set: SPR. The following applies: GT mispair-containing double end-blocked DNA surface; buffer with ATP and LacI; read off a plot.
Data set [2] concerns Msh2(K694M);Msh6 (Saccharomyces cerevisiae;Saccharomyces cerevisiae). Nature of the data set: SPR. The following applies: ATP up to 2.5 mM, LacI; SPR on streptavidin surface; buffer, salt, pH and temperature not given in the material; with or without 0.1-2.5 mM ATP; LacI end block, released by 1 mM IPTG.
Data set [3] concerns Msh2;Msh6;Mlh1;Pms1 (Saccharomyces cerevisiae;Saccharomyces cerevisiae;Saccharomyces cerevisiae;Saccharomyces cerevisiae). The experiment in a line: SPR. To be noted: ATP, LacI; SPR on streptavidin surface; buffer, salt, pH and temperature not given in the material; with or without 0.1-2.5 mM ATP; LacI end block, released by 1 mM IPTG.
Data set [4] concerns Msh2;Msh6(G1142D) (Saccharomyces cerevisiae;Saccharomyces cerevisiae). Nature of the data set: SPR. The following applies: 0.1 and 2.5 mM ATP, LacI; printed as no more than 0.86; SPR on streptavidin surface; buffer, salt, pH and temperature not given in the material; with or without 0.1-2.5 mM ATP; LacI end block, released by 1 mM IPTG.
The subject of data set [5] is Msh2(K694R);Msh6 (Saccharomyces cerevisiae;Saccharomyces cerevisiae). Nature of the data set: SPR. To be noted: ATP up to 2.5 mM, LacI; SPR on streptavidin surface; buffer, salt, pH and temperature not given in the material; with or without 0.1-2.5 mM ATP; LacI end block, released by 1 mM IPTG.
Data set [6] concerns Msh2(K694A);Msh6 (Saccharomyces cerevisiae;Saccharomyces cerevisiae). The experiment in a line: SPR. To be noted: ATP up to 2.5 mM, LacI; SPR on streptavidin surface; buffer, salt, pH and temperature not given in the material; with or without 0.1-2.5 mM ATP; LacI end block, released by 1 mM IPTG.
The target in data set [7] is Walker A Lys mutant Msh2–Msh6 complexes (S. cerevisiae). Nature of the data set: SPR; Biacore T100; 236-bp GT mispair DNA held by biotin-streptavidin, other end blocked by lacO-LacI; 20 nM Msh2–Msh6, 250 μM ATP, 30 nM LacI for 100 s, then the same plus 40 nM Mlh1–Pms1 for 300 s; recruitment read as the increase in RU over steady-state Msh2–Msh6; 25 mM Tris pH 8, 4 mM MgCl2, 110 mM NaCl, 0.01% Igepal, 2 mM DTT, 2% glycerol; 10 °C, 20 μl/min. To be noted: scale: Mlh1–Pms1 complexes bound per Msh2–Msh6 complex. Background: SPR reads the build-up and loss of mass on a sensor chip optically.

For data set [8], the system named is Msh2;Msh6 (Saccharomyces cerevisiae;Saccharomyces cerevisiae). The experiment in a line: SPR. The following applies: SPR on streptavidin surface; buffer, salt, pH and temperature not given in the material; with or without 0.1-2.5 mM ATP; LacI end block, released by 1 mM IPTG.

Substance “S. cerevisiae Msh2–Msh6 (WT) mutant Msh2:K694M [S. cerevisiae] / S. cerevisiae Mlh1–Pms1 [S. cerevisiae] chain 3 K694M” displayed a screen value in data set [1] of 4.9. As for “236-bp mispaired DNA, double end-blocked”, the binding signal (Msh2-Msh6 per DNA (maximum)) in data set [2], in data set [5] and in data set [6] was 1 each time. Moreover, in data set [3], the binding signal (Mlh1-Pms1 per Msh2-Msh6) was 1.07. The binding signal (Msh2-Msh6 per DNA) in data set [4] was less than 0.86. Consider “S. cerevisiae Msh2–Msh6 (WT) mutant Msh2:K694A [S. cerevisiae] / S. cerevisiae Mlh1–Pms1 [S. cerevisiae] chain 3 K694A”, for which the screen value in data set [1] worked out at 3.5. “S. cerevisiae Msh2–Msh6 (WT) mutant Msh6:K988R [S. cerevisiae] / S. cerevisiae Mlh1–Pms1 [S. cerevisiae] chain 4 K988R” came in with a screen value in data set [1] of 2.4. Consider “S. cerevisiae Msh2–Msh6 (WT) mutant Msh6:K988M [S. cerevisiae] / S. cerevisiae Mlh1–Pms1 [S. cerevisiae] chain 4 K988M”, for which the screen value in data set [1] amounted to 3.4. For “S. cerevisiae Msh2–Msh6 (WT) mutant Msh6:K988A [S. cerevisiae] / S. cerevisiae Mlh1–Pms1 [S. cerevisiae] chain 4 K988A”, the screen value in data set [1] amounted to 3.3. As a reminder, the stoichiometry N is the number of molecules, sites or subunits per partner or assembly. On to “S. cerevisiae Mlh1–Pms1 (from UniProt P38920 1-769; P14242 1-873) (complex)”, for which, in data set [7], the stoichiometry N was in the range of 2.06 to 3.75. Regarding “S. cerevisiae Msh2–Msh6 (WT) mutant Msh2:K694R [S. cerevisiae] / S. cerevisiae Mlh1–Pms1 [S. cerevisiae] chain 3 K694R”, the screen value in data set [1] came out at 4.3. Regarding 236-bp +T mispair DNA, in data set [8], the binding signal (% of WT RUmax) was 100.
